Assay results: patent US20080057028A1

Legend:
[1] = biological target: neuropilin-2 on mouse oligodendrocyte precursor cells (OPCs) (mouse) (UniProt O35375); assay: cell-based or functional assay
[2] = biological target: VEGFR-3 on mouse oligodendrocyte precursor cells (OPCs) (mouse) (UniProt P35917); assay: cell-based or functional assay
Chain of UniProt P35917 (P35917 25-1363): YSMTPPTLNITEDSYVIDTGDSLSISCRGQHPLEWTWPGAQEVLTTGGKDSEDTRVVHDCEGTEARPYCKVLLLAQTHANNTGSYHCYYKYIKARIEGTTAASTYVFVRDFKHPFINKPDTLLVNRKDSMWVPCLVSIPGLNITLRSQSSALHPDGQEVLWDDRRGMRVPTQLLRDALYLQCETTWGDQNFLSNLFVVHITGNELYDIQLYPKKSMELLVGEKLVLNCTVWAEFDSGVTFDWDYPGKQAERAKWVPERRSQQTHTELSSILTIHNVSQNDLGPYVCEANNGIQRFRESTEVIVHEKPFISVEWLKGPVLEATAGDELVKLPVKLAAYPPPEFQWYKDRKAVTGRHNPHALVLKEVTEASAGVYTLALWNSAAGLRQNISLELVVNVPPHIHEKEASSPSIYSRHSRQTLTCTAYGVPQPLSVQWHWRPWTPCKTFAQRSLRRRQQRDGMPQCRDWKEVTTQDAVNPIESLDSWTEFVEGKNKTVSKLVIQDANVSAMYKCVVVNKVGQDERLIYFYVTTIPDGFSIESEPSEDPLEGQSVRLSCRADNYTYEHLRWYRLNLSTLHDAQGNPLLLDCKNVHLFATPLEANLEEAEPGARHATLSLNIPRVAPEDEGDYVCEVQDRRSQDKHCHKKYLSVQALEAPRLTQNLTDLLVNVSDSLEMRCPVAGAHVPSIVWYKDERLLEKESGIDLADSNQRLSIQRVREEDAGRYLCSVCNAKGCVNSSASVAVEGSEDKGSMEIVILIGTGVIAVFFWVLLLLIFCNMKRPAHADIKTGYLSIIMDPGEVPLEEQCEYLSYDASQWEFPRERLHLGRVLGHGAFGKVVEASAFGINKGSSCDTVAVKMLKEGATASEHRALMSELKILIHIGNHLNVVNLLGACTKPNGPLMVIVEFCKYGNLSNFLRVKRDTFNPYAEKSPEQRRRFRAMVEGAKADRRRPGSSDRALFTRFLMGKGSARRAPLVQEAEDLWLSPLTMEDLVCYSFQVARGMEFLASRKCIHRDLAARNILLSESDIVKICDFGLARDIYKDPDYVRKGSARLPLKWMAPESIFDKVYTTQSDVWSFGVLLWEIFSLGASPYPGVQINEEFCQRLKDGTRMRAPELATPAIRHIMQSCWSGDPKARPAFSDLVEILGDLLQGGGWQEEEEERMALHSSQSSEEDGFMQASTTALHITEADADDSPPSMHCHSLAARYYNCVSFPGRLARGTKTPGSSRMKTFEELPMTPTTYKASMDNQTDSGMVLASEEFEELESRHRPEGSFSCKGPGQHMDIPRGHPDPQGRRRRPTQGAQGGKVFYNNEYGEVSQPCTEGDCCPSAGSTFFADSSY

Chain of UniProt O35375 (O35375 21-931): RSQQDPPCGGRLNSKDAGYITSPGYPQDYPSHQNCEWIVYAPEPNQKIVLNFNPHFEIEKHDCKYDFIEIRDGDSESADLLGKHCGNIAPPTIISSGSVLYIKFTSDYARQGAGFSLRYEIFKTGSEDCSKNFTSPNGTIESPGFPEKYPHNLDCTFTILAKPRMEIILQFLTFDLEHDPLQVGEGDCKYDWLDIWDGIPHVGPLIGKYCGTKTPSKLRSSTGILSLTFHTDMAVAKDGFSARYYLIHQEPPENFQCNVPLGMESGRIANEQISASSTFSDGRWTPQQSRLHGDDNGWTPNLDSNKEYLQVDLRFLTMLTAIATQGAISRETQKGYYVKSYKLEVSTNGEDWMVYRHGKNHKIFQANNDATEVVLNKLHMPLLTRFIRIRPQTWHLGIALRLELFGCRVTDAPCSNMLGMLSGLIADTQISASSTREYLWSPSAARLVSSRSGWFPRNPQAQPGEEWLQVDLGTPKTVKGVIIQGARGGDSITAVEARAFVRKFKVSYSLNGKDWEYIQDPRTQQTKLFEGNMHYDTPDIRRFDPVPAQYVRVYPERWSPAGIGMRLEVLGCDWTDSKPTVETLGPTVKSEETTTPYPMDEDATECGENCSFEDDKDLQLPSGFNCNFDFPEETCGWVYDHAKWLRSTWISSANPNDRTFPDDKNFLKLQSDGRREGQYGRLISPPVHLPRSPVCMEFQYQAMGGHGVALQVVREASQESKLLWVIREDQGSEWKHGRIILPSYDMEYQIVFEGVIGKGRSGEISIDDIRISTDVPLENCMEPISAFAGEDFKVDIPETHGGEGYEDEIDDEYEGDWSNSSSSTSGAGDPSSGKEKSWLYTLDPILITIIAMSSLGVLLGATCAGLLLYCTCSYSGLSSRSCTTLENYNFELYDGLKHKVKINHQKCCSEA

Substance | BrdU incorporation of A2B5^+ OPCs [1] [fold] | proliferation of OPCs (BrdU^+/A2B5^+ cells) [2] | migration of Olig2^+ OPCs through the filter (transwell) [2] [fold]
VEGF-C (supernatant of COS cells secreting VEGF-C) (ligand) | 2 |  | 
human VEGF-C156S (R&D Systems) (from UniProt P49767 103-227) (ligand) |  | 50% | 
recombinant rat VEGF-C (Reliatech) (from UniProt O35757 99-223) (ligand) |  | 2 fold | > 2
